The values below come from article PMC12363564, “Modulation of the PTPRS proteoglycan switch by antibodies binding to the membrane-proximal fibronectin-type III domain” (The Journal of Biological Chemistry, 2025).

Read-outs that look alike come from different tables or passages of the source.

Assay [1] deals with T1, C-terminally 6xHis tagged mouse PTPRS (mPTPRS) ECD (mouse, UniProt B0V2N1 30-1257).
T1 chain: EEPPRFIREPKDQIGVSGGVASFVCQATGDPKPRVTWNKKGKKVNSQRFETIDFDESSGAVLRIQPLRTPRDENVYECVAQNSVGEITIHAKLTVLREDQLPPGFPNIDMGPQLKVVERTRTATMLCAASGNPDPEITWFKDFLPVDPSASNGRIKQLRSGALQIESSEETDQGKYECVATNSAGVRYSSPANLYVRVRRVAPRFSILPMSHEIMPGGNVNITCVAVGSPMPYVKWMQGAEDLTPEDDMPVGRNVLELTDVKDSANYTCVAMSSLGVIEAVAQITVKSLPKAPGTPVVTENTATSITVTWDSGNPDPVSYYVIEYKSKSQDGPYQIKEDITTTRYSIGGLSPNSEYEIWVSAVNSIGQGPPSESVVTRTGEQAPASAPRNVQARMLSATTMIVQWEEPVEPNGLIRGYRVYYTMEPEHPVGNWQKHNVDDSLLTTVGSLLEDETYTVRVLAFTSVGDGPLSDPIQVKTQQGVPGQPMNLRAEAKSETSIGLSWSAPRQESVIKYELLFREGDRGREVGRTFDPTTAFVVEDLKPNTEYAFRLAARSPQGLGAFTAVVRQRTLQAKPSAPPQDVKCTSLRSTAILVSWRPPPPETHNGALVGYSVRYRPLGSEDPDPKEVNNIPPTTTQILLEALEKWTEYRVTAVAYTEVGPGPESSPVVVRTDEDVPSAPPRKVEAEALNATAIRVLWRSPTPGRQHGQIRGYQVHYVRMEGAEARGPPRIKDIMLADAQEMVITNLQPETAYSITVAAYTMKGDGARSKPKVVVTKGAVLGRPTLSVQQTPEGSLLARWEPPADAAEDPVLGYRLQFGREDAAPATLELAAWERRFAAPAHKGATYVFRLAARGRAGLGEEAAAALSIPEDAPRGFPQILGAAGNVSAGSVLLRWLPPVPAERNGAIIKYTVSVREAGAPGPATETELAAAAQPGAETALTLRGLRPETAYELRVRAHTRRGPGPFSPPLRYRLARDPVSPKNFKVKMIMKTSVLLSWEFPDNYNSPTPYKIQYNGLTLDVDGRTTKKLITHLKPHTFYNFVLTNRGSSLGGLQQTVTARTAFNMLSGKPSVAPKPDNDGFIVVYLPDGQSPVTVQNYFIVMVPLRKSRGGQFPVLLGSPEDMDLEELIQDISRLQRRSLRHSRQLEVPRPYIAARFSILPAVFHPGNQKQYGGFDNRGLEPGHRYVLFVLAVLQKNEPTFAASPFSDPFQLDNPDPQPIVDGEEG
The assay can be described thus: BLI. In general terms: Biolayer interferometry detects binding as a change in optical thickness at a sensor tip.

Assay [2] has as its target T1, C-terminally 6xHis tagged mouse PTPRS …. As to the kind of experiment: BLI.
Assay [3] addresses T2, 6xHis-tagged hPTPRS Fn9 (residues 1117-1270) (human, UniProt Q13332 1117-1270).
T2 chain: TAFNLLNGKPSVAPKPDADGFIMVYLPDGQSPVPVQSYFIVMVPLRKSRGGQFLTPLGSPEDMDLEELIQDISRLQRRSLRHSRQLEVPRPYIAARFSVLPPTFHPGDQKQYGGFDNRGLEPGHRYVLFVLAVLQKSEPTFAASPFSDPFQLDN
The assay can be described thus: BLI.

Assay [4] has as its target T2, 6xHis-tagged hPTPRS Fn9 (residues …). The assay can be described thus: BLI.
Assay [5] has as its target T1, C-terminally 6xHis tagged mouse PTPRS …. As to the kind of experiment: BLI.
Assay [6] has as its target T3, PTPRS^Δ326 (hPTPRS-HA N-terminal truncation lacking Ig-like domains 1 to 3) (Homo sapiens, UniProt Q13332, point mutant).
T3 construct: human PTPRS isoform 1, N-terminal truncation lacking Ig-like domains 1 to 3, obtained from WT hPTPRS-HA by site-directed mutagenesis; source: HEK293T, transfected, in RIPA lysate; not shown: HA, C-terminal, kept
As to the kind of experiment: co-IP; RIPA lysates of HEK293T cells overexpressing HA-tagged full length or truncated hPTPRS incubated with the antibody for 2 h at 4 °C, Protein G Sepharose, anti-HA blot. The conditions noted are these: one partner purified.

For assay [7], the target named is T4, WT human PTPRS (hPTPRS) isoform 1 with a C-terminal HA tag (human, UniProt Q13332).
T4 construct: human PTPRS isoform 1, open reading frame in pcDNA3.1 (+); also called PTPRS-HA; hPTPRS-HA; source: HEK293T, transfected; in RIPA lysate (immunoprecipitation), on or in cells (flow cytometry, PLA); not shown: HA, C-terminal, kept
T4 sequence (Q13332 30-1948): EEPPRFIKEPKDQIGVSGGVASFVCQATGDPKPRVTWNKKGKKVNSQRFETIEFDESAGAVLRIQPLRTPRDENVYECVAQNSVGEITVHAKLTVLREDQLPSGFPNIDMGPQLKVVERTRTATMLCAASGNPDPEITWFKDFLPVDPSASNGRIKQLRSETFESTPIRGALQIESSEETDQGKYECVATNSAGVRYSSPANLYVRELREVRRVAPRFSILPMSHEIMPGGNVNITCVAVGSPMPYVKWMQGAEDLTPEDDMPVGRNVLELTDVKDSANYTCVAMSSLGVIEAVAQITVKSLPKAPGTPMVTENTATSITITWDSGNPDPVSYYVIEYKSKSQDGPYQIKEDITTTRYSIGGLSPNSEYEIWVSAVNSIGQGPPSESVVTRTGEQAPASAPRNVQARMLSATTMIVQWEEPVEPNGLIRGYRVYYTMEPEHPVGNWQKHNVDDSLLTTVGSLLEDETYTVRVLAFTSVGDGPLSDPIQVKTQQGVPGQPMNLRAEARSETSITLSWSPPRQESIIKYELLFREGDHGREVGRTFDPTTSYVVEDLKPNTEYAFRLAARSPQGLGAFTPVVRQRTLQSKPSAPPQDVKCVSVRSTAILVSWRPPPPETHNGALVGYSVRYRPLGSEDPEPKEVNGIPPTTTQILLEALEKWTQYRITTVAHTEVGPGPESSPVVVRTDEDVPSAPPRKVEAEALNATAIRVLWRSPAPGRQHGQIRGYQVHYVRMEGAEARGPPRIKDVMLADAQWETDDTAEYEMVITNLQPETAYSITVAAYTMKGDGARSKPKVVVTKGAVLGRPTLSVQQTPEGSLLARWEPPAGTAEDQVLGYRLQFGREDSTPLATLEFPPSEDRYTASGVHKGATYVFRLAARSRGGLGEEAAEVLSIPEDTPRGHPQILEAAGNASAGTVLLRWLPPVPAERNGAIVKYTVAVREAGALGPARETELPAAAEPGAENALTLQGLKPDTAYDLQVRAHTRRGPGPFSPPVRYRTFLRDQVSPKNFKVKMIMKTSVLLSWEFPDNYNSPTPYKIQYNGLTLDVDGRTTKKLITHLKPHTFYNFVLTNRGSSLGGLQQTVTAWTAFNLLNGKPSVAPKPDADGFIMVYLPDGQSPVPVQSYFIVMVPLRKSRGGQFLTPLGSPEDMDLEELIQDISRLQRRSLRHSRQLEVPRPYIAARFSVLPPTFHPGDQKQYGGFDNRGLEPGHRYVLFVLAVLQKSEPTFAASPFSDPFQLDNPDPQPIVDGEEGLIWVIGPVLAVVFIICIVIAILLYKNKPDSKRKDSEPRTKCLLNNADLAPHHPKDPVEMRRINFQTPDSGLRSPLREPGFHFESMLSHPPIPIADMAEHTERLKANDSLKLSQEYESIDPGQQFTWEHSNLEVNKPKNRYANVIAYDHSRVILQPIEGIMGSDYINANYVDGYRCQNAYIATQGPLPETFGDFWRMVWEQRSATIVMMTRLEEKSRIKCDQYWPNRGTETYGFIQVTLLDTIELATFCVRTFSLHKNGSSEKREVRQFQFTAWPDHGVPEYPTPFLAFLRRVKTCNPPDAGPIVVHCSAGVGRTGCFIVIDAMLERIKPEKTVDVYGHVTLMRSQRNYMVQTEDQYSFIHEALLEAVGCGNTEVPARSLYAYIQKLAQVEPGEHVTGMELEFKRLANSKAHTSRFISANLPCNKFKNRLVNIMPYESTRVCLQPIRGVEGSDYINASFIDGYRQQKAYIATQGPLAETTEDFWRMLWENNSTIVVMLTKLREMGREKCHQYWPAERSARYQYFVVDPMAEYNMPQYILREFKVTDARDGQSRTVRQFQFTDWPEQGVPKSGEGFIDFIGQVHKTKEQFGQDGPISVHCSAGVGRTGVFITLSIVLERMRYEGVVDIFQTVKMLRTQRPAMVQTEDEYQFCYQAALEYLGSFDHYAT
The assay is described as above. The conditions noted are these: one partner purified.

The target in assay [8] is T5, PTPRS^Δ1096 (hPTPRS-HA N-terminal truncation lacking the ECD including most of Fn8) (Homo sapiens, UniProt Q13332, point mutant).
T5 construct: human PTPRS isoform 1, N-terminal truncation lacking the ECD including most of Fn8, obtained from WT hPTPRS-HA by site-directed mutagenesis; source: HEK293T, transfected, in RIPA lysate; not shown: HA, C-terminal, kept
The description is as above. To be noted: one partner purified.

The target of assay [9] is T6, C-terminally 6xHis tagged mouse PTPRS (mPTPRS) ECD (Mus musculus, UniProt B0V2N1).
T6 construct: also called mPTPRS ectodomain; PTPRS ectodomain; source: HEK293T, transiently transfected, supernatant; purified (Ni-NTA, HiTrap heparin); not shown: His6, C-terminal, kept
As to the kind of experiment: BLI; His-tagged ligand (mPTPRS ECD or hPTPRS Fn9) immobilised on anti-6xHis probes at 100 to 200 nM; antibodies or scFv-Fc fusions as analytes; Gator K buffer (0.02% BSA, 0.002% Tween-20 in PBS, pH 7.4), 37 °C; biphasic (2:1) association model. The conditions noted are these: both partners purified.

Assay [10] has as its target T7, 6xHis-tagged hPTPRS Fn9 (residues 1117-1270) (Homo sapiens, UniProt Q13332).
T7 construct: human PTPRS isoform 1 (Q13332), fibronectin type III-like domain 9, residues 1117-1270, amplified from WT hPTPRS and subcloned into pHLsec; the printed primers encode a start at TAFNLLN and an end at PFQLDN (translated from the primers); also called hPTPRS Fn9His; Fn9 fragment of PTPRS; source: HEK293T, transiently transfected, supernatant
Described as above. To be noted: both partners purified.

The target in assay [11] is T4, WT human PTPRS (hPTPRS) isoform 1 with …. The assay can be described thus: proximity ligation; purified antibody, scFv-Fc or Fc decoy added for 30 min to the co-transfected HEK293T cells before the PLA; read-out is the loss of the PLA signal of the tagged pair. The conditions noted are these: one partner purified.

B1: 13G5^IgG1 (13G5 variable regions on mouse IgG1/κ constant regions) (antibody, V domains shown)
VH: EVKLVESGGGLVQPGGSLKLSCATSGFTFSDYYMYWVRQTPEKRLEWVAYISNGGGSTYYPDTVKGRFTISRDNAKNTLYLQMSRLKSEDTAMYYCARHVYYGRNYAMDYWGQGTSVTVSS
VL: DIQMTQTTSSLSASLGDRVTISCRASQDISNYLNWYQQKPDGTVKLLIYYTSRLHSGVPSRFSGSGSGTDYSLTISNLEQEDIATYFCQQGNTLPYTFGGGTKLEIK
B1 yielded a Kd in [1] of 16.5 nM. Also, the koff in assay [2] is 0.003 s⁻¹.

B2: 13G5^HL-scFv-Fc (VH-linker-VL scFv of 13G5 fused to human IgG1 Fc) (scFv, V domains shown)
VH: EVKLVESGGGLVQPGGSLKLSCATSGFTFSDYYMYWVRQTPEKRLEWVAYISNGGGSTYYPDTVKGRFTISRDNAKNTLYLQMSRLKSEDTAMYYCARHVYYGRNYAMDYWGQGTSVTVSS
VL: DIQMTQTTSSLSASLGDRVTISCRASQDISNYLNWYQQKPDGTVKLLIYYTSRLHSGVPSRFSGSGSGTDYSLTISNLEQEDIATYFCQQGNTLPYTFGGGTKLEIK
B2 had a koff in [3] of 0.00016 s⁻¹. The molecule further gave a Kd in assay [4] of 0.28 nM.

B3: 49F2 (mouse monoclonal antibody, IgG1/κ) (antibody, V domains shown)
VH: EVQLVESGGDLVKPGGSLKLSCAASGFIFSSYGMSWVRQTPDKRLEWVATISSGGSDTYYPDSVKGRFTISRDNANNTLYLQMSSLKSEDTAMYYCARQVYYGLYWYFDVWGAGTTVTVSS
VL: DIVMTQSHKFMSTSVGDRVSIICKASQDVNTAVAWYQQKPGQSPKLLIYSASYRYTGVPDRFTGSGSGTDFTFTISSVQAEDLAIYYCQQHYSTPYTFGGGTKLEIK
notes: VH of 49F2; constant region of the mouse IgG1 heavy chain; VL of 49F2; constant region of the mouse κ light chain; IgG1/κ; source: production contracted to Viva Biotech
On to B3, for which, in assay [5], the koff was 0.005 s⁻¹. For the same molecule, the binding result in [6], in [7] and in assay [8] was “binds” in each case. In assay [9], this molecule displayed a Kd of 25.7 ± 9.66 nM.

B4: 22H8^IgG2b (22H8 variable regions on mouse IgG2b/κ constant regions) (antibody, V domains shown)
VH: QVQLQQSGAELARPGASVKLSCKASGYTFTSYWMQWVKQRPGQGLEWIGAIYPGDGDTRYTQKFKGKATLTADKSSSTAYMQLSSLASEDSAVYYCARRIYYGYYYAMDYWGQGTSVTVSS
VL: DIVLTQSPASLAVSLGQRATISCKASQSVDYDGDSYMNWYQQKPGQPPKLLIYAASNLESGIPARFSGSGSGTDFTLNIHPVEEEDAATYYCQQSNEDPLTFGAGTKLELK
notes: as the VH of m3 (22H8); constant region of the mouse IgG2b heavy chain (entire constant region swapped); as the VL of m3 (22H8); constant region of the mouse κ light chain; IgG2b/κ form of 22H8; source: production contracted to Viva Biotech
With B4, the dissociation rate constant (koff) in [2] turned out to be 0.06 s⁻¹. Also, the Kd in assay [9] was found to be 38.2 nM.

B5: 22H8 (mouse monoclonal antibody, IgG1/κ) (antibody, V domains shown)
VH: QVQLQQSGAELARPGASVKLSCKASGYTFTSYWMQWVKQRPGQGLEWIGAIYPGDGDTRYTQKFKGKATLTADKSSSTAYMQLSSLASEDSAVYYCARRIYYGYYYAMDYWGQGTSVTVSS
VL: DIVLTQSPASLAVSLGQRATISCKASQSVDYDGDSYMNWYQQKPGQPPKLLIYAASNLESGIPARFSGSGSGTDFTLNIHPVEEEDAATYYCQQSNEDPLTFGAGTKLELK
notes: VH of 22H8; constant region of the mouse IgG1 heavy chain; VL of 22H8; constant region of the mouse κ light chain; IgG1/κ; source: production contracted to Viva Biotech
As to B5, the koff was determined as 0.002 s⁻¹ in assay [5] and 0.009 s⁻¹ in assay [3]. The binding result in assay [6], in assay [7], in [8] and in [10] was “binds” in each case. For the same molecule, the Kd in assay [4] was found to be 17.6 nM; in assay [9], 13.2 ± 3.74 nM.

B6: 22H8^HL-scFv-Fc (VH-linker-VL scFv of 22H8 fused to human IgG1 Fc) (scFv, V domains shown)
VH: QVQLQQSGAELARPGASVKLSCKASGYTFTSYWMQWVKQRPGQGLEWIGAIYPGDGDTRYTQKFKGKATLTADKSSSTAYMQLSSLASEDSAVYYCARRIYYGYYYAMDYWGQGTSVTVSS
VL: DIVLTQSPASLAVSLGQRATISCKASQSVDYDGDSYMNWYQQKPGQPPKLLIYAASNLESGIPARFSGSGSGTDFTLNIHPVEEEDAATYYCQQSNEDPLTFGAGTKLELK
notes: as the VH of m3 (22H8); linker between VH and VL; as the VL of m3 (22H8); ORF synthesized by Genscript and subcloned into pHLsec as a C-terminal hFc fusion; also called 22H8-Fc HL; source: HEK293T, transiently transfected, supernatant; purified (Protein A); not shown: Fc (human IgG1), C-terminal, kept
Regarding B6, the binding result in assay [11] and in [10] was “binds” each time. In addition, in assay [3], the koff came to 0.0056 s⁻¹. This molecule also came in with a Kd in [4] of 2.65 nM.

A word on the Kd: it is the equilibrium constant for the complex coming apart. By koff is commonly meant the first-order rate constant of dissociation.
